Results taken from doi:10.1101/431288 (bioRxiv, 2018).

Molecular target: the molecule itself
Experiment: cryo-EM structure

B1: human butyrylcholinesterase (HuBChE), native glycosylated enzyme purified from plasma (enzyme, UniProt P06276 29-602, looked up)
chain: EDDIIIATKNGKVRGMNLTVFGGTVTAFLGIPYAQPPLGRLRFKKPQSLTKWSDIWNATKYANSCCQNIDQSFPGFHGSEMWNPNTDLSEDCLYLNVWIPAPKPKNATVLIWIYGGGFQTGTSSLHVYDGKFLARVERVIVVSMNYRVGALGFLALPGNPEAPGNMGLFDQQLALQWVQKNIAAFGGNPKSVTLFGESAGAASVSLHLLSPGSHSLFTRAILQSGSFNAPWAVTSLYEARNRTLNLAKLTGCSRENETEIIKCLRNKDPQEILLNEAFVVPYGTPLSVNFGPTVDGDFLTDMPDILLELGQFKKTQILVGVNKDEGTAFLVYGAPGFSKDNNSIITRKEFQEGLKIFFPGVSEFGKESILFHYTDWVDDQRPENYREALGDVVGDYNFICPALEFTKKFSEWGNNAFFYYFEHRSSKLPWPEWMGVMHGYEIEFVFGLPLERRDNYTKAEEILSRSIVKRWANFAKYGNPNETQNNSTSWPVFKSTEQKYLTLNTESTRIMTKLRAQQCRFWTSFFPKVLEMTGNIDEAEWEWKAGFHRWNNYMMDWKNQFNDYTSKKESCVGL
notes: also called native BChE tetramer
  stoichiometry N: 4
